Results reported in US20230399394A1 (SUNSHINE GUOJIAN PHARMACEUTICAL SHANGHAI, published 2023).

Assays:
[1] = biological target: T1, IL-33 mutant protein D68A (human, UniProt O95760 112-270); experiment: ELISA as Example 9; row D68A against WT-3
T1 construct: Prokaryotic expression
T1 chain: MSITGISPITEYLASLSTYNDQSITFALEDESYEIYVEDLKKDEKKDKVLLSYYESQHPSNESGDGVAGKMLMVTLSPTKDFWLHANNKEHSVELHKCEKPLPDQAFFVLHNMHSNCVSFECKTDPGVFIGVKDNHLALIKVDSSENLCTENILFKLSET
Method: (§1) SA protein was diluted to 2 μg/mL to coat ELISA plate at 100 μL/well overnight at 4° C. The plate was washed with PBST (PBS containing 0.05% Tween20) for 3 times, and blocked with 2% BSA prepared in PBS at 200 μL/well, at room temperature for 2 h. After the plate was washed twice with PBST, IL-33-his-biotin protein was diluted to 1 μg/mL with 1% BSA prepared in PBST, and was added to ELISA plate at 100 μL/well. The plate was incubated at room temperature for 1 h, and each monoclonal antibody was diluted with 1% BSA prepared in PBST in a 3-fold gradient. The highest concentration of antibody was 10 μg/mL, and the antibody was diluted for 12 gradients. Each diluted monoclonal antibody was added to ELISA wells with 100 μL/well, and the plate was incubated at room temperature for 1 h. Each sample was added to duplicate wells in parallel. The plate was washed with PBST for 3 times, and HRP-anti human IgG Fc secondary antibody prepared with PBST was diluted at an appropriate ratio, and was added to ELISA wells at 100 μL/well. […] Each reaction solution was shaken uniformly and OD450 nm was read on a microplate reader. The data was analyzed and EC₅₀ was calculated.
(§2) Subsequently, according to the experimental method of Example 9, the affinity of the above mutant proteins to 874F7-Hu1 was determined, and IL-33 proteins (WT-1, WT-2, WT-3, and WT-4) without any mutation were set as controls.

[2] = biological target: T2, IL-33 mutant protein K70A (human, UniProt O95760 112-270); experiment: ELISA as Example 9; row K70A
T2 construct: Prokaryotic expression
T2 chain: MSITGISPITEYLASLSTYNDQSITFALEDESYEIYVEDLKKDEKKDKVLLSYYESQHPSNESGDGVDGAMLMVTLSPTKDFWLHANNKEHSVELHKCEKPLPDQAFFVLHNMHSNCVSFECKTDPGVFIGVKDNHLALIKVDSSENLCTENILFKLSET
Method: as §1, §2

[3] = biological target: T3, IL-33 mutant protein L50A (human, UniProt O95760 112-270); experiment: ELISA as Example 9; row L50A
T3 construct: Prokaryotic expression
T3 chain: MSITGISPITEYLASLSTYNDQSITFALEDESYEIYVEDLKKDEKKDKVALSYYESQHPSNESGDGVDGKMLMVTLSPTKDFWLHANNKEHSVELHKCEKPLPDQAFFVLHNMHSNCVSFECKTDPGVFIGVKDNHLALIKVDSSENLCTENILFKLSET
Method: as §1, §2

[4] = biological target: T4, IL-33 mutant protein K48A (human, UniProt O95760 112-270); experiment: ELISA as Example 9; row K48A
T4 construct: Prokaryotic expression
T4 chain: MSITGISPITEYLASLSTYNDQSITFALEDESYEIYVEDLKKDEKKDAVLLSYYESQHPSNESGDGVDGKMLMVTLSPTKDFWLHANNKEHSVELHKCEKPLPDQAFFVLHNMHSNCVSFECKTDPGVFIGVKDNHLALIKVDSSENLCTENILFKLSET
Method: as §1, §2

[5] = biological target: T5, IL-33 mutant protein S60A (human, UniProt O95760 112-270); experiment: ELISA by the method of Example 9 with the IL-33 mutant protein on the plate, 874F7-Hu1 in serial dilution, HRP anti-human IgG Fc, absorbance 450 nm
T5 construct: Prokaryotic expression; also called 560A
T5 chain: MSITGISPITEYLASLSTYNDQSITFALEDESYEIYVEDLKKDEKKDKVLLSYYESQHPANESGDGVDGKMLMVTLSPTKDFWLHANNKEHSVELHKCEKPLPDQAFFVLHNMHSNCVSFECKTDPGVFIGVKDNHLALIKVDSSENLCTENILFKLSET

[6] = biological target: T6, IL-33 protein without any mutation (WT) (human, UniProt O95760 112-270); experiment: ELISA as Example 9; row WT-1, the reference itself
T6 construct: Control of the alanine scan (four runs WT-1 to WT-4); also called WT-1; WT-2
T6 sequence: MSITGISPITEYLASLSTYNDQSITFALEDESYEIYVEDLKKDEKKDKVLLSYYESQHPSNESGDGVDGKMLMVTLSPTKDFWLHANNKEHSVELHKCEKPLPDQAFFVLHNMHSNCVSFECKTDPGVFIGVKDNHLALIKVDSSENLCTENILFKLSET
Method: as §1, §2

[7] = biological target: T7, Human IL-33-his (human, UniProt O95760 112-270, biotinylated with EZ-Link NHS-Biotin where used as IL-33-his-biotin); experiment: SPR Biacore 8K, antibody captured on Protein A/G chip, IL-33-his as analyte, 1:1 model
T7 construct: Used plain (SPR, cell assays) and biotinylated (ELISA); also called IL-33-his-biotin
T7 sequence: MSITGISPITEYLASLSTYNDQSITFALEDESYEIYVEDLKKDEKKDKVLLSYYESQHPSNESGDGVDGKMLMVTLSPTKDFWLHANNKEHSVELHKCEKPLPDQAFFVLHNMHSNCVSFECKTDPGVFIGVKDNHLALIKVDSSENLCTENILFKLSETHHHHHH
Method: A chip with covalently coupled Protein A/G (purchased from GE Healthcare, catalog number BR-1005-30) was used to capture each antibody to be tested, and the relevant operating parameters were as follows: The antibody concentration was […], the contact time was 75 s, the flow rate was […], and the regeneration contact time was 30 s. The IL-33-his antigen was diluted with HBS-EP pH7.4 buffer solution (purchased from GE Healthcare, catalog number BR-1006-69). The maximum concentration was 50 nM, and diluted to 0.39 nM by two-fold dilution. Duplicate wells and 0 concentration point well were set, and 6M guanidine hydrochloride solution was used as the regeneration buffer. The sample was injected on Biacore 8K according to the following parameters, the binding time was 180 s, the dissociation time was 900 s, the flow rate was 30 μL/min, and the regeneration contact time was 30 s. After running, Biacore 8K Evaluation Software was used to analyze the data according to the “1:1 binding kinetics model”, and the binding kinetics parameters of each antibody to IL-33 were obtained.

Affinity decline ratio [1]: 1.2 fold | EC50 [2]: 0.11 nM | EC50 [3]: 3.34 nM | EC50 [4]: 0.49 nM | EC50 (read off the curve) [5]: ~1 nM | Affinity decline ratio [6]: 1 fold | Kd [7]: 2.82 nM | koff [7]: 0.00057 s⁻¹ | kon [7]: 202000 M⁻¹ s⁻¹
B1: 874F7-Hu1 (antibody, human IgG4 S228P, kappa)
heavy: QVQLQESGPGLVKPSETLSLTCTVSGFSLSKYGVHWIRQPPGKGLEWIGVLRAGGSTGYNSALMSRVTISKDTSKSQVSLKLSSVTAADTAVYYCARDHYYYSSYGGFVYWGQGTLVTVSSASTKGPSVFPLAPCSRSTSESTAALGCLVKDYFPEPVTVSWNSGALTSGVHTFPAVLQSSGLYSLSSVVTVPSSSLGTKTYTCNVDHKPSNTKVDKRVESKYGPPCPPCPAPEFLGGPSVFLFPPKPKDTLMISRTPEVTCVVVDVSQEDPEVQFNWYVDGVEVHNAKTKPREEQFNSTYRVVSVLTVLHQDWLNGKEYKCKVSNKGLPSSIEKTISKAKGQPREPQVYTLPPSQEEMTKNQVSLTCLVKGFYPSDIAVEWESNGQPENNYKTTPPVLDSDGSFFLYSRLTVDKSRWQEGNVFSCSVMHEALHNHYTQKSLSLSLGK
light: DIQMTQSPSSVSASVGDRVTITCLASQTIGAWLAWYQQKPGKSPKLLIYAATRLADGVPSRFSGSGSGTDFTLTISSLQPEDFATYYCQQLDSSPYTFGQGTKVEIKRTVAAPSVFIFPPSDEQLKSGTASVVCLLNNFYPREAKVQWKVDNALQSGNSQESVTEQDSKDSTYSLSSTLTLSKADYEKHKVYACEVTHQGLSSPVTKSFNRGEC
notes: also called 874F7-Hul; humanized antibody 874F7-Hu1
